Results from patent US20130028888A1 (AERES BIOMEDICAL, published 2013).

Legend:
[1] = biological target: T1, human CD22 expressed on the cell surface (human, UniProt P20273 20-847); experiment: cell ELISA on BHK cells expressing human CD22, COS-7 supernatant, OD 655 nm
T1 construct: whole, on cells; One entry covers all cell-surface formats (BHK-CD22, CHO, COS, Daudi, human B cells); also called hCD22; BHK-CD22

[2] = biological target: T1, human CD22 expressed on the cell surface; experiment: cell ELISA on BHK cells expressing human CD22, OD 655 nm
[3] = biological target: T1, human CD22 expressed on the cell surface; experiment: BHK-CD22 cell ELISA
[4] = biological target: T1, human CD22 expressed on the cell surface; experiment: cell ELISA on BHK cells expressing human CD22, goat anti-mouse Ig-HRP, OD 450 nm
Text: The BHK-CD22 binding assay was used to test the binding activity of the chHB227 antibody in the transiently transformed COS 7 culture supernatants. A goat anti-human Ig-HRP conjugate (Sigma Chemicals) was used to detect binding of chHB22.7 mAb while a goat anti-mouse Ig-HRP conjugate (Southern Biotechnology) was used to detect binding of the parental mouse HB22.7 mAb. The bound HRP conjugates were exposed to the substrate o-phenyldiamine (OPD) and the resulting products detected at 450 nm.

B1: humanized antibody HB227RHF + HB227RKC (antibody, human IgG1, V domains shown)
VH: QVQLQESGPALVKPTQTLTLTCTVSGFSLSDYGVNWIRQPPGKALEWLGIIWGDGRTDYNSALKSRLSISKDNSKNQVVLRMTNVDPVDTATYFCARAPGNRAMEYWGQGTVVTVSS
VL: DIVMTQSPSSLSASVGDRVTITCKASQSVTNDVAWYQQKPGKAPKLLIYYASNRYTGVPDRFSGSGYGTDFTLTISSLQPEDFATYFCQQDYRSPWTFGGGTKVEIKR
notes: Human IgG1/kappa constants; COS-7 supernatant; also called RHF+RKC; humanized (RHF+RKC) antibody
EC50 (read off the curve) [1]: ~0.2 µg/mL

B2: chimeric HB22.7 antibody chHB227 (chH + chL) (antibody, human IgG1, V domains shown)
VH: QVQLKESGPGLVAPSQSLSITCTVSGFSLSDYGVNWVRQIPGKGLEWLGIIWGDGRTDYNSALKSRLNISKDNSKSQVFLKMNSLKADDTARYYCARAPGNRAMEYWGQGTSVTVS
VL: SIVMTQTPKFLLVSAGDRITLTCKASQSVTNDVAWYQQKPGQSPKLLIYYASNRYTGVPDRFTGSGYGTDFTFTISTVQAEDLAVYFCQQDYRSPWTFGGGTKLEI
notes: Mouse HB22.7 variable regions on human IgG1 and kappa constant regions (vectors pG1D20, pKN10); Transient COS-7 supernatant; also called CH+CK; fully chimeric antibody
EC50 (read off the curve) [2]: ~0.3 µg/mL | EC50 (read off the curve) [1]: ~0.1 µg/mL

B3: HB227RHC heavy chain + chimeric HB22.7 light chain (chL) (antibody, human IgG1, V domains shown)
VH: QVQLQESGPALVKPTQTLTLTCTFSGFSLSDYGVNWIRQPPGKALEWLGIIWGDGRTDYNSALKSRLSISKDNSKNQVVLRMTNVDPVDTATYFCARAPGNRAMEYWGQGTVVTVSS
VL: SIVMTQTPKFLLVSAGDRITLTCKASQSVTNDVAWYQQKPGQSPKLLIYYASNRYTGVPDRFTGSGYGTDFTFTISTVQAEDLAVYFCQQDYRSPWTFGGGTKLEI
notes: Human IgG1/kappa constants; COS-7 supernatant; also called RHC+chL
fold binding relative to chimeric light chain with HB227RHB [3]: ~2 fold

B4: parental mouse monoclonal anti-CD22 antibody HB22.7 (antibody, V domains shown)
VH: QVQLKESGPGLVAPSQSLSITCTVSGFSLSDYGVNWVRQIPGKGLEWLGIIWGDGRTDYNSALKSRLNISKDNSKSQVFLKMNSLKADDTARYYCARAPGNRAMEYWGQGTSVTVS
VL: SIVMTQTPKFLLVSAGDRITLTCKASQSVTNDVAWYQQKPGQSPKLLIYYASNRYTGVPDRFTGSGYGTDFTFTISTVQAEDLAVYFCQQDYRSPWTFGGGTKLEI
notes: Mouse hybridoma antibody (ATCC HB11347); Labelled with Alexa-fluor 488 or 647 in some cell assays; also called murine HB22.7; mouse HB22.7
EC50 (read off the curve) [4]: ~0.08 µg/mL

B5: HB227RHF heavy chain + chimeric HB22.7 light chain (chL) (antibody, human IgG1, V domains shown)
VH: QVQLQESGPALVKPTQTLTLTCTVSGFSLSDYGVNWIRQPPGKALEWLGIIWGDGRTDYNSALKSRLSISKDNSKNQVVLRMTNVDPVDTATYFCARAPGNRAMEYWGQGTVVTVSS
VL: SIVMTQTPKFLLVSAGDRITLTCKASQSVTNDVAWYQQKPGQSPKLLIYYASNRYTGVPDRFTGSGYGTDFTFTISTVQAEDLAVYFCQQDYRSPWTFGGGTKLEI
notes: Human IgG1/kappa constants; COS-7 supernatant; also called HB227RHF+chL; RHF+chL
EC50 (read off the curve) [1]: ~0.1 µg/mL
